In US20240092847A1, “FUNCTIONAL NUCLEIC ACID MOLECULE AND METHOD” (The University Court of The University of Edinburgh, priority 2021, published 2024):

Biological target: T1, SOX2 (Homo sapiens, UniProt P48431)
T1 construct: endogenous in cells; host or cells: nuclear extract of GSC7 and GSC328 (patient-derived glioblastoma stem cell lines)
Test: Biotinylated enhancer pull down with nuclear extract and mass spectrometry
Assay type: binding
Settings: normalised to random sequence 599
Procedure: The oligo was PCR-amplified using biotinylated primers. The PCR product was then SPRI purified to remove biotinylated primer dimers. These dsDNA fragments were incubated with nuclear extract from GSC7 and GSC328. They were then bound to streptavidin magnetic beads, washed three times and the frozen beads were sent for mass spectrometry analysis.
All the buffers were prepared the day before, passed through a […] filter (except the dialysis buffer) and left at 4° C. overnight. DTT and protease inhibitors were added just before use. The cells were scraped on the media and collected on 50 ml falcons, which were spun at 1350 rcf 5 minutes at 4° C. The pellet was resuspended in 50 ml of ice cold PBS, an aliquot was taken for cell counting, and spun again spun at 1350 rcf 5 minutes at 4° C. The pellet was then resuspended in 5 ml per 40 million cells of ice cold buffer A (10 mM HEPES pH 7.9, 1.5 mM MgCl2, 10 mM KCl, 0.5 mM DTT, protease inhibitors (Complete, Roche, 11697498001)) and incubated on ice for 10 min. The cell suspension was transferred to a glass Dounce homogenizer and dounced 40 times on ice. The cell suspension was transferred to a falcon and centrifuged at 1350 rcf for 10 min at 4° C. […] The supernatant was collected into new 1.5 ml tubes and quantified (Pierce BCA Protein Assay Kit, Thermo Scientific, Cat 23225). […]

T1 sequence (P48431 whole entry): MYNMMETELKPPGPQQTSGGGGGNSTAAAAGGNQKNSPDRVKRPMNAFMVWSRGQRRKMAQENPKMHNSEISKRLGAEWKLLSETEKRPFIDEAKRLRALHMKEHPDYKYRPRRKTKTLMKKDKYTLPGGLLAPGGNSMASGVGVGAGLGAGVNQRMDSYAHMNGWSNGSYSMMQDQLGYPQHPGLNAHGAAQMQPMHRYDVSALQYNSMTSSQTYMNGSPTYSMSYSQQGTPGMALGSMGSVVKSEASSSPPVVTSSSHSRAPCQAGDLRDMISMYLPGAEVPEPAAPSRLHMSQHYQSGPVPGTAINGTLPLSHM

B1: ID1101: enhancer fragment, SEQ ID NO: 4 (nucleic acid)
DNA: GTGAGTGTGACTCACATGCTGGCATCAGAGCCCCTCTTAGAGCTTAGAACACTGGGCCTCTGTCAGGCAAAGAAAAGGAGTCCCTATGAATAGCCATCTCCACAAATAGCAGTTACTGTCACTTCTTAAAAGACACAAGCATGGCTGGAGACCGGCACTG
- SOX2 enrichment in pull down (mass spectrometry) (G7 nuclear extract): 4.4 fold
- SOX2 enrichment in pull down (mass spectrometry) (GSC328 nuclear extract): 23 fold
